From article PMC3415457, “Cohesin Rings Devoid of Scc3 and Pds5 Maintain Their Stable Association with the DNA” (PLoS Genetics, 2012) come the findings set out here.

The chains are these.
T1: Scc3, recombinant, His6-tagged (S. cerevisiae (budding yeast), UniProt P40541 1-1150)
T1 construct: also called His6-tagged Scc3; source: E. coli BL21 (DE3) RIL, purified (Ni-NTA, gel filtration); not shown: His6, C-terminal, kept
T1 sequence (looked up): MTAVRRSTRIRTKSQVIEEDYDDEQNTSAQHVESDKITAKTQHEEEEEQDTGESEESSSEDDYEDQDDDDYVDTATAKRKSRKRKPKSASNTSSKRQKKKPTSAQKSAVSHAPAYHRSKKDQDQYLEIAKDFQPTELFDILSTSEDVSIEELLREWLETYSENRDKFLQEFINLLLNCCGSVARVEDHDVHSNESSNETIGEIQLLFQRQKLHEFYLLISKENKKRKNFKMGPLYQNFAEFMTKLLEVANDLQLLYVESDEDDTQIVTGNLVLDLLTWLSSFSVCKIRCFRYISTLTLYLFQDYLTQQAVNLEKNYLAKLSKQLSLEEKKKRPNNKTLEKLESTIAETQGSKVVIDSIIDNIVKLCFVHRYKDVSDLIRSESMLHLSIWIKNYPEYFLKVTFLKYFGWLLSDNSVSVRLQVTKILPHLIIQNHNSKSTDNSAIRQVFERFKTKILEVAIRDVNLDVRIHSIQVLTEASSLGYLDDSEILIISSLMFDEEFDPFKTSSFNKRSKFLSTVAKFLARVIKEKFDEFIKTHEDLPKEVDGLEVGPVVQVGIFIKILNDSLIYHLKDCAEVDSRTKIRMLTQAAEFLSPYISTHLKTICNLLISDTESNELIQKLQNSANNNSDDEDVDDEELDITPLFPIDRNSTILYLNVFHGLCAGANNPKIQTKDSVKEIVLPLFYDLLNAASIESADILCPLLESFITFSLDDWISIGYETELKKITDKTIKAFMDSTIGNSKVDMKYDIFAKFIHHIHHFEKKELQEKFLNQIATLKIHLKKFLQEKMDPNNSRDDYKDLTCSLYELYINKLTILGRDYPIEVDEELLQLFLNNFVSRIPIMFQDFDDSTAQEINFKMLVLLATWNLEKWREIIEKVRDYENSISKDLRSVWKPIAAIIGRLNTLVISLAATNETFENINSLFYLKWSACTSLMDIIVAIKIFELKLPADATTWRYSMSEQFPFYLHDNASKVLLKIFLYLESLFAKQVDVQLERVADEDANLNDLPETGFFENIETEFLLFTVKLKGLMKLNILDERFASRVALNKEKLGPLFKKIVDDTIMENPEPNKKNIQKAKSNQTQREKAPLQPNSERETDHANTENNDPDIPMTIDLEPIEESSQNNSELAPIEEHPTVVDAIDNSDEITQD

T2: Pds5, recombinant, His6-tagged (S. cerevisiae (budding yeast), UniProt Q04264 1-1277)
T2 construct: also called His6-tagged Pds5; source: E. coli BL21 (DE3) RIL, purified (Ni-NTA, gel filtration); not shown: His6, C-terminal, kept
T2 sequence (looked up): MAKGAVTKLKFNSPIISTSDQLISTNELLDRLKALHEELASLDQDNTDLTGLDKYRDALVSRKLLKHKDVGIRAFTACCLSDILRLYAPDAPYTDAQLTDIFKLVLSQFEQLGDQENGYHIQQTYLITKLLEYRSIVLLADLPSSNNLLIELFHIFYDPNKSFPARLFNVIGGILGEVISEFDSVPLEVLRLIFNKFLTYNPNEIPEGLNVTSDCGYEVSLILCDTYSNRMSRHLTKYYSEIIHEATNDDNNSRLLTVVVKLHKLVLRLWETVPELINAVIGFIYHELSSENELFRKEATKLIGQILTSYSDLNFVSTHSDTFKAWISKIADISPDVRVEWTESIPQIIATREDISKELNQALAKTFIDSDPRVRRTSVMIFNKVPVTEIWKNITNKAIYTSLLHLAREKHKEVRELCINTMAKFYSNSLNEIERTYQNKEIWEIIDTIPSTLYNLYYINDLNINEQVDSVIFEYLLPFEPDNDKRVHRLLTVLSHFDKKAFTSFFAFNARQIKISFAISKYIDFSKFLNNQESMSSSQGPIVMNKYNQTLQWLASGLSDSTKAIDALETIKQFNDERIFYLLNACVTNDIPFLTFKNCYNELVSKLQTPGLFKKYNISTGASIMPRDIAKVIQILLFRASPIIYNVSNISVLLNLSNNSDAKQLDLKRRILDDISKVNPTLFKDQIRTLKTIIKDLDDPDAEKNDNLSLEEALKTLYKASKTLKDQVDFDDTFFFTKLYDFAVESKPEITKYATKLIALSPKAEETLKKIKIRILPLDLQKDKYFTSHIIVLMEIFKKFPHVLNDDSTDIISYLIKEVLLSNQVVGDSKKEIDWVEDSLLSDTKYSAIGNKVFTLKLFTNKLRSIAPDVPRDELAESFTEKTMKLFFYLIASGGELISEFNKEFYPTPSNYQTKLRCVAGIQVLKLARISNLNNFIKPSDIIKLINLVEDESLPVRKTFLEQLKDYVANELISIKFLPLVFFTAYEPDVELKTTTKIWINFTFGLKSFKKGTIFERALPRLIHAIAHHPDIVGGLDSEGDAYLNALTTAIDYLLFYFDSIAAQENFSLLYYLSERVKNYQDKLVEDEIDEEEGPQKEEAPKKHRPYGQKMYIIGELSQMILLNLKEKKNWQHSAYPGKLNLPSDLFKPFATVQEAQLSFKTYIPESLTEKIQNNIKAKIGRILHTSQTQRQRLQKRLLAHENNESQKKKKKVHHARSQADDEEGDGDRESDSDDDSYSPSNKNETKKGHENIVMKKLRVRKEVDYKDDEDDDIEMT

T3: GST fused to the N-terminal region (aa 1–168) of Scc1 (Saccharomyces cerevisiae (strain ATCC …, UniProt Q12158))
T3 chain: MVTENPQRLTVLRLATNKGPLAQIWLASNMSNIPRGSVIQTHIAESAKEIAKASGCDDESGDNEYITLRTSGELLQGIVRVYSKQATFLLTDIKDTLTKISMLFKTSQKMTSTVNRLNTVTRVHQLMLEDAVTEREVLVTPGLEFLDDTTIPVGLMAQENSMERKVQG

T4: GST fused to the C-terminal region (aa 338–566) of Scc1 (Saccharomyces cerevisiae (strain ATCC …, UniProt Q12158))
T4 chain: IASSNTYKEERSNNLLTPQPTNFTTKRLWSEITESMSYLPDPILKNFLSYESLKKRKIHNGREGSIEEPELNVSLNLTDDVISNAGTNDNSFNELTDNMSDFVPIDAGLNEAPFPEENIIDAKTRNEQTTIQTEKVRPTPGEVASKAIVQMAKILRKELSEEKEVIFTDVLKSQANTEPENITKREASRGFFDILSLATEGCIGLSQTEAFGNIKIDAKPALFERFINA

B1: GST fused to the C-terminal region (aa 338–566) of Scc1 (domain or fragment, S. cerevisiae (budding yeast), UniProt Q12158 338-566, looked up)
chain: T4 chain
notes: Scc1 of budding yeast, C-terminal region, aa 338–566; The methods' sentence on C-terminal His6 tags follows the list of constructs; whether it also holds for the GST fusions is not clear; also called C-terminal part of Scc1; Scc1 C-terminus
B2: Wpl1, recombinant, His6-tagged (natural protein, S. cerevisiae (budding yeast), UniProt Q99359 1-647, looked up)
chain: MRAYGKRGPVLRTPFRSNKGLPSSSDVEFSDDDVNSVIPDVSSTISSSIADHPIEGLLDEPRKAQDSSSSFDGANEKPSSQLDSKRNDQNVKIITSSDTSMAFMKDEKLSAFNFLDGSKASKRKRRRTYQKHDANITSSIEPDVQDEDSITMHNEFESIRKIYNDINEFILKLPRADDDILNKMLENEMKMDDSIENNSIRTSKDKKYGKFRTILINKNKENEIMGEEVDQKANTLSLNNADNSNAEKEGLTSTNHYNELKNMGDTIKYQDDIEFLLSNSKSNDNTTVPINEYFKKLLNLSLMIINDEEFFQYAKRYFKKEIIKLSFAQFRSDFPELILLQGYLLHKVSESQSDFPPSFDNFSIELSKDDGKIRTKKNKHIKKLSHLNFEDFLRKTQFKTGLYYSLSLWEMHGNLSLDIIKRISILASNKDLFSRHVKTFIPLLEKLITASEFCHMYIEQPEMFDSLISNLNNQFKDMLDDDSLIKILILLTNMEVHNYTLWKEADMIFQSSMNTILESIHPLTDAKVDNILLHLGLCLNICSRENSRLKLDGKLWYDMKTIFVKMIRDGSDTENRLVQGLFYLNFSFLIKQRKENSNLDPGELNLLLVELEAFKSETSQFNEGISNKIEIALNYLKSIYTSERITI
notes: also called Rad61; His6-tagged Wpl1; source: E. coli BL21 (DE3) RIL, purified (Ni-NTA, gel filtration); not shown: His6, C-terminal, kept
B3: GST fused to the N-terminal region (aa 1–168) of Scc1 (domain or fragment, S. cerevisiae (budding yeast), UniProt Q12158 1-168, looked up)
chain: T3 chain
notes: Scc1 of budding yeast, N-terminal region, aa 1–168; The methods' sentence on C-terminal His6 tags follows the list of constructs; whether it also holds for the GST fusions is not clear; also called N-terminal region of Scc1; Scc1 N-terminus

Experiment [1] concerns the target B2. Description: pull-down; GST fusions of Scc1 regions on glutathione-agarose beads; His6-tagged Wpl1, Scc3 and Pds5 mixed together and pre-incubated 30 min at 4°C, then with beads 2 h at 4°C; 20 mM HEPES pH 7.5, 100 mM NaCl, 5% glycerol, 5 mM 2-mercaptoethanol; washes with 0.5% NP-40; Western blot with Penta-His antibody. The following applies: both partners purified.

Experiment [2] deals with T1, Scc3, recombinant, His6-tagged. The experiment is described as above. The following applies: both partners purified.
Experiment [3] addresses T2, Pds5, recombinant, His6-tagged. Description: co-sedimentation; 10–30% glycerol gradient; 10 mM HEPES-KOH pH 7.5, 75 mM NaCl, 0.25 mM EDTA; proteins mixed and preincubated 1 h at 4°C; 38000 rpm, 38 h, 4°C, SW40 Ti; fractions on Coomassie-stained SDS-PAGE. The following applies: both partners purified.
Experiment [4] has as its target T3, GST fused to the N-terminal region (aa …). Briefly: GST pull-down; Pds5 present: Wpl1 bound as Pds5/Wpl1 complex (Wpl1, Scc3 and Pds5 premixed); direct Wpl1-Scc1 binding alone not reported in text.
The target in experiment [5] is T4, GST fused to the C-terminal region (aa …). Briefly: GST pull-down; Scc3 present: Wpl1 bound as Scc3/Wpl1 complex (Wpl1, Scc3 and Pds5 premixed); direct Wpl1-Scc1 binding alone not reported in text.
The target of experiment [6] is T2, Pds5, recombinant, His6-tagged. Briefly: pull-down; GST fusions of Scc1 regions on glutathione-agarose beads; His6-tagged Wpl1, Scc3 and Pds5 mixed together and pre-incubated 30 min at 4°C, then with beads 2 h at 4°C; 20 mM HEPES pH 7.5, 100 mM NaCl, 5% glycerol, 5 mM 2-mercaptoethanol; washes with 0.5% NP-40; Western blot with Penta-His antibody. Conditions: both partners purified.

B1: the binding result in experiment [1] and in experiment [2] was “binds” each time.
For B2, the binding result in experiment [3], in experiment [4] and in experiment [5] was “binds” each time.
B3: the binding result in experiment [1] and in experiment [6] was “binds” throughout.
